± gives the standard deviation of the averaged measurements.
Experiments:
[1] = purified protein yield per well (BCA); higher = higher soluble expression
How it was run: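 Purified protein yield per well is reported, as measured by the Pierce Rapid Gold BCA kit. The enzymes came from E. coli C41(DE3) autoinduction cultures of 2 mL with 100 µg/mL kanamycin, held at 37 °C for 2 h and 18 °C for 40 h, then lysed and purified on Ni-charged magnetic beads with SUMO protease release. The detection threshold is 25 ug (0.1 mg/mL), and lower values are under it.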

[2] = melting temperature (DSF); higher = more thermostable
How it was run: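 On a Bio-Rad CFX96, fluorescence of 45 μL enzyme (0 to 0.3 mg/mL) mixed with 5 μL 5X Sypro Orange in sealed PCR plates was followed from 25 °C through 250 cycles of 0.3 °C, with a 0.3 °C/s ramp. The enzymes had been expressed in E. coli C41(DE3), taken up on nickel beads and released by SUMO protease. Melting temperature, measured by differential scanning fluorimetry, is the value given.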

[3] = PET hydrolysis, aromatic products released after 48 h (umol product/mg enzyme); higher = more PET depolymerization activity
How it was run: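 Amorphous PET film or crystalline PET powder (3.5 mg) in 450 μL of 50 mM NaCitrate (pH 4.5, 5.5), 50 mM NaPhosphate (pH 6.5, 7.5) or glycine (pH 8.5) received 5 μg (50 μL) of candidate enzyme. That enzyme was purified on nickel beads and freed of its tag by SUMO cleavage. After 48 h at 40 or 60 °C in sealed plates without shaking, absorbance of the supernatant at 260 and 280 nm was read against buffer blanks. PET hydrolysis activity is this aromatic product expressed per mg enzyme.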

[4] = substrate: aFilm, 40 °C, pH 4.5
[5] = substrate: aFilm, 40 °C, pH 5.5
[6] = substrate: aFilm, 40 °C, pH 6.5
[7] = substrate: aFilm, 40 °C, pH 7.5
[8] = substrate: aFilm, 60 °C, pH 4.5
[9] = substrate: aFilm, 60 °C, pH 5.5
[10] = substrate: aFilm, 60 °C, pH 6.5
[11] = substrate: aFilm, 60 °C, pH 7.5
[12] = substrate: cryPow, 40 °C, pH 4.5
[13] = substrate: cryPow, 40 °C, pH 5.5
[14] = substrate: cryPow, 40 °C, pH 6.5
[15] = substrate: cryPow, 40 °C, pH 7.5
[16] = substrate: cryPow, 60 °C, pH 4.5
[17] = substrate: cryPow, 60 °C, pH 5.5
[18] = substrate: cryPow, 60 °C, pH 6.5
[19] = substrate: cryPow, 60 °C, pH 7.5
[20] = substrate: cryPow, 40 °C, pH 8.5
[21] = substrate: cryPow, 60 °C, pH 8.5

Sequence | purified protein yield per well [1] | melting temperature [2] | PET hydrolysis [3, 4] | PET hydrolysis [3, 5] | PET hydrolysis [3, 6] | PET hydrolysis [3, 7] | PET hydrolysis [3, 8] | PET hydrolysis [3, 9] | PET hydrolysis [3, 10] | PET hydrolysis [3, 11] | PET hydrolysis [3, 12] | PET hydrolysis [3, 13] | PET hydrolysis [3, 14] | PET hydrolysis [3, 15] | PET hydrolysis [3, 16] | PET hydrolysis [3, 17] | PET hydrolysis [3, 18] | PET hydrolysis [3, 19] | PET hydrolysis [3, 20] | PET hydrolysis [3, 21]
ASPYERGPNPTAASVSATTGPFAIASVSVARGNGFGGGVIYYPTATNQGTFGGIAISPGLNGTWAGIAWLGPRLASQGFVVFGIETNNLNDSPTSRGTQLLAALDYLTQRSTVRTRVDAGRLAVMGHSMGGGGALDAALRRPSLQAAIGNAPHLPSGTLSNDRVPTMIYAMQNDTLVPPSRLTTLYNSIPATTERGYILVTGAGHNYIGQPSTTLARTMIPWFKIFIDDDTRYSQFLCPMSNQSGISQYRNSCPLS [ESM160] | 400 µg | 55.6 C | < 3 | < 3 | < 3 | < 3 | < 3 | < 3 | < 3 | < 3 | < 3 | 13.5 ± 2.1 | 43.5 ± 3.5 | 66.5 ± 0.71 | < 3 | < 3 | 7.5 ± 0.71 | 14 ± 1.4 |  | 
GTTASATTVSGTQAAAAQEYRRGPDPTAQSVEAATGPFAIQQTSVPAGNGFGGGTIYYPTDTSQGTFGAIAISPGWTEDQSAIAWLGPKLASNGFVVMTINNNNAFLDFPDARGTQLLAALDSLTGQSPVAGRIDKNRLAVAGHSMGGGGALRAAATRPEIQAAIPLTPWHLNQDWSSVRVPTLIVGGETDIIASVGAHSEPFYESLTNAPERAYLEMEGQGHFVTNSANPTVGRYVLSWLKRYVDNDTRYEQFLCPAPAPSSVISEYRDSCPGS [DP018] | 84 µg | 66.1 C |  |  |  |  |  |  |  |  |  | < 3 | < 3 | < 3 |  | < 3 | < 3 | < 3 | < 3 | < 3
DEIGQAPTAGNITGNGSFTTTSESISSLVSGFGGGRVYYPTTAGKYPVVAISPGFTATWSSLSWIGPRLSSWGFVVVGIETNSIYDQPASRGSQLLAALNWAVNSSSSAVRARVDGSRRGVAGHSMGGGGTLEALAADTTGLVKAGVPIAPWNSDKTWNNVSEPVMIVGGQSDTVAPVASHSIPFYNTLAGPKGYVELTGASHFFPQSTNATLSRALVAWFKRWLNQDSRFTPYTCGFSGLAVSDFRSNAC [ESM090] | 116 µg | 68.5 C |  |  |  |  |  |  |  |  | < 3 | 27 | 46 | 65 | < 3 | 12 | 35 | 51 |  | 
ADNPYQRGPDPTRTSVATENGPFANTSVSVPTGYGFNGGRIYYPTDTSQGTFGAIAISPGYTALFSAELAWMGPWLASHGFVVIGIETNSRNDFDTARGTQLLAALDYLTQQSPVRDRVDPTRLAVAGHSMGGGGALSAATRRSSLKAAVGIAPYSPSSNLANDRVPTMIFSGQADTVVTPSYATSLYNSLPSTTESIYLEVAGADHGFMVGRSNPVMIRTMLPFLKMFIDNDARYSQFLCPLLDSSGVVTSRSTCPLLPSTPTTPPTDPPTDPPTNPPGSANEIVGTQSGRCVDVPNAATTNGTRVQLYTCNKQTNQAWTYTSGKQLQVYGTMCLDAAGSGNGAAVQIYSCHSQTNQQWNVNSNGTISNVQSGRCLDVWSTSNGAQIQLYDCHGQTNQQFRLAALGGGTQTPTPTPTTPPPTGGACDLPSSYRWSSTG [ESM143] | 55.9 µg | 55.9 C |  |  |  |  |  |  |  |  | < 3 | < 3 | < 3 | < 3 | < 3 | < 3 | < 3 | < 3 |  | 
DQIGQAPTASNITGNGSFATTSASISSTVSGFGGGRVYYPTAAGTYPVIAISPGFTATWSSLAWIGPRLSSWGFVVVGIETNSIYDQPASRGNQLLAALNWAVNSSPTAVRSHVDGSRRGVAGHSMGGGGTLEALAADTTGLVKAGVPLAPWNTDKTWNNVSEPVLIVGGQADTVAPVASHSIPFYNTLAGPKTYVELTGQSHFFPQTTNATASRALVAWFKRWVSQDSRFTPFTCGFSGVAVSDFRSNAC [ESM082] | 151 µg | 67.6 C |  |  |  |  |  |  |  |  | 9 | 22 | 29 | 36 | < 3 | 23 | 46 | 65 |  | 
MLTITVATGSASAADNPYQRGPDPTRTSVTAVNGPFANTSVSVPTGYGFNGGRIYYPTDTSQGTFGAIAISPGYTALFSAELAWMGPWLASHGFVVIGIETNSRNDFDTARGTQLLAALDYLTQQSPVRDRVDPNRLAVAGHSMGGGGALSAATRRSSLKAVVGIAPYSPSSNLANDRVPTMIFAGQADTVVTPSYATGLYNSLPTTTESAYLEVAGADHGFMVGRSNPVMVRTMLPFVKMFIDNDARYSQFLCPLLDSSGVVTYRSTCPLLPSTPPTSTPTPTDPPTPTPTPTVPPGSASEIVGTQSSRCIDVPNASRNNGTRVQLYDCNKQTNQA [ESM121] | 268 µg | 58.9 C | < 3 | < 3 | < 3 | < 3 | < 3 | < 3 | < 3 | < 3 | 5.5 ± 0.71 | 15 ± 1.4 | 11 | 2.5 ± 3.5 | < 3 | < 3 | < 3 | < 3 |  | 
MMPSADAASTLADNPYQRGPDPTVASVAAAYGTFATAQLTVPPGNGFNGGSIYYPTDTSQTYGAVAIVPGYTARFADEEAWMGPRLASFGFVVIGVETNSRNDFDTARGTQLLAALDYLTNSSAVRDRVDRNRLAVIGHSMGGGGALVAADQRPSLKAAIGLAPYKPSGNLANNRVPTLILSGQNDTVVTPSYLDGLYPTLPAATPGAYILLSGADHLFFTRPNDIEMRSQIPWLKTFVDNDTRYSQFLCPTLKDTTSVARSTAKCSLIPSGGNPSTPPSSSSPSPSSPASSSPPPSGAKHIVGAQSGRCVDVPNSSRTNGTRVQLYDCHSGTNQQWTYTSSRQLTVYGSMCLDAAGSGNGAAVQIYSCNGQANQQWNVNSNGTISGVQSGRCLDVWGTNNGQQIQLYDCHGQANQRFSLS [TEP054] | 297 µg | 60.7 C | 3 | 8 ± 1.4 | 9.5 ± 0.71 | < 3 | < 3 | < 3 | < 3 | < 3 | 14 ± 4.2 | 24 ± 2.8 | 35 | 18 ± 2.8 | 2 ± 2.8 | 7 ± 1.4 | 7.5 ± 2.1 | 1.5 ± 2.1 |  | 
DPPTHAKGVKPGPSELAAPSASDLAADGPHAVTTTAISGSVTPGFGAATIYAPASGSGYGGVAISPGYMSTQSAVSWLGPRLASHGFVVITFDTTTIWDNPDSRGVQLLAALDYLTGSSPARGQVDASRLAVMGHSMGGGGSLAAAKSRPSIDAAIPLTPWHTDKTWPEVSTPTLIVGAENDGIAPVASHAEPFYESLATSTDRAYLELNAATHSAPNSENAQISTYSLAWLKRFVDGDTSVDPILCPGPAASSTVEEYRSSCPF [DP019] | 28 µg | 42.7 C |  |  |  |  |  |  |  |  |  | < 3 | < 3 | < 3 |  |  |  |  | < 3 | 
AANPYERGPDPTDAILEAARGPFETSRTEVPALSVTGFGGGTIYYPATTSAGTFGGVAVAPGYTADRTSLAWLAERLASHGFVVFNIDTLTRLDQPDSRGRQLLAALDYLTQRSSVRGRLDAGRLGVMGHSMGGGGTLEAARDRPSLQAAVPLTPWDLTKIWSGVRVPTMIVGAEADTIAPVASHAEPFYQSLPSSPGKAYLELNNATHFAPNVPDTTIGKYVVAWMKRFVDDDTRYTRFLCPGPSGGLTVEEYRSTCPFS [TEP194] | 325 µg | 50.8 C | < 3 | < 3 | < 3 | < 3 | < 3 | < 3 | 2 ± 2.8 | < 3 | 5 | 8.5 ± 0.71 | 7 | 1.5 ± 2.1 | 3.5 ± 0.71 | 7 | 3.5 ± 0.71 | < 3 |  | 
LTPSPTPPPTGGTGGCPADAICRGETPGSYSANGPYGSRSYTLSRIQTPGGATVYYPANAEPPFSGLVFTPPYTGSQFMYRAWGPFFASHGIVMVTMDTRTTLDSVDQRAAQQKQVLDALKAENTRSASPLRGKLDTSRLGAVGWSMGGGATWINSAEYSGLKTAMSLAGHNLSALDINARGSNTRVPTLIMNGALDATYLGGLGQSLGVYNNIPRGIPKVIYEVSSAGHFSWGSPTSAGRSVAQIALAFQKTFLDGDTRWATYIRRPSSGVATWRTANLP [ESM175] | 285 µg | 46 C | < 3 | < 3 | < 3 | < 3 | < 3 | < 3 | < 3 | < 3 | < 3 | < 3 | < 3 | < 3 | < 3 | < 3 | < 3 | < 3 |  | 
QYQKGPDPTTSSLERAGSFATRTISVSSLAASGFGGGRIYYPTASGSYGVIAVSPGYTGTASTMYFWGERLSSHGFVVIVIETNTLLDQPGSRANQLMAALNYTVSQGNSRTSALYGKVDGNRRGVAGHSMGGGGTLIAAADNASLKAAVPMAPWNLSSLSFRGIRVPTMIFGCQSDAIAPVNTHAVPFYNAIPSSTKKGYVEMRLDDHFCVMNGGGHYETLGKLGISWFKRFIDEDTRYSKFLCGTEYNATVRSTEVSDSKNNCPY [DP039] | 57 µg | 47.8 C |  |  |  |  |  |  |  |  |  | < 3 | 3 | 4 |  | < 3 | < 3 | < 3 | 3 | < 3
ADNPHQRGPNPTQASVAASRGTFATSETSVGGGNGFGGAKIYYPTDTSQGKFAALAVSPGYTATWAAEGAWMGHWLASFGFVIIGIDTISRTDWDVARGDQLLAALDYLTQRSSVRDRVDASRVGVMGHSMGGGGAISAGLKRPSLKVVIGNAPYSASQNLTNMRVPVALLAGQRDTTVTPATTNSYYNQVPATTEKMYLELTNAPHSFPTSNNSVMTRKVIPWMKIFLDQDTRYQQFLCPLLDNTGIRTYRSSCPLIGDPMPPADTYRLAGAASGKCADVEGRSQANGAKLLLWTCNGQTNQRWTQTATGELRVYDNPKCVEAGTSAQGTRVTINACNGGNSQKWTVNANGTVTNAVSGRCLDAAGTADNSPIVVNTCTGAGSQNWSKRS [TEP049] | 68.7 µg | 50.8 C |  |  |  |  |  |  |  |  | < 3 | < 3 | < 3 | < 3 | < 3 | < 3 | < 3 | < 3 |  | 

From the supplement of paper PMC12455559
